These results are taken from patent US20040154051A1 (SYNGENTA PARTICIPATIONS, published 2004).

The target of the assay is T1, NIM450 bait (first 450 amino acids of the NIM1 protein, LexA fusion) (Arabidopsis, UniProt P0A7C2 1-202; P93002 1-450).
T1 construct: The LexA fusion is stated outright only for the full-length bait
T1 sequence (looked up): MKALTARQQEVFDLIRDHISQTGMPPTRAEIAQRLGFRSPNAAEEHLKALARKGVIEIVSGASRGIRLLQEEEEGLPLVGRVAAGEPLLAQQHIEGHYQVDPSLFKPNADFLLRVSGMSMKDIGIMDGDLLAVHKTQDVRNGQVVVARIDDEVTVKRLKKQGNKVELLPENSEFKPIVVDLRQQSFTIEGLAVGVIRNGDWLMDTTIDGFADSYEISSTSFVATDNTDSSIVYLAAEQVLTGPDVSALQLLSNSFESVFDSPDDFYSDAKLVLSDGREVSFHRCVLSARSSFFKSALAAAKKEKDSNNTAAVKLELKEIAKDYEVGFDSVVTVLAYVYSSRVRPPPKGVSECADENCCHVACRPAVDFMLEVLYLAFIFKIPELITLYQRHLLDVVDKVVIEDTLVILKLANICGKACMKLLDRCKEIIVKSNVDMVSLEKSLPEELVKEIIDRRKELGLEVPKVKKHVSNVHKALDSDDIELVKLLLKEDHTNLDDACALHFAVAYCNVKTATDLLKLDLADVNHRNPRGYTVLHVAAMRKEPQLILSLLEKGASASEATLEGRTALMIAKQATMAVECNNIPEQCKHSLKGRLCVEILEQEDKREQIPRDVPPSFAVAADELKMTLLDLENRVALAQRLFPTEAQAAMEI
In words: yeast two-hybrid (LexA bait, B42 prey; Leu2 and LacZ reporters).

Experimental: These baits are transformed into yeast strain EGY188, which contains a low sensitivity LexA operator fused to the Leu2 gene, and appropriate tests are performed to determine whether the NIM1 fusion proteins intrinsically activate expression of the yeast reporter genes. […] The library is transformed in combination with one of the three NIM1 baits above and a plasmid containing 2 LexA operators fused to LacZ as a secondary reporter. Approximately 10⁶ transformants are analyzed in screens with each bait, and individual clones that activate both the Leu2 and LacZ reporters are isolated and sequenced by standard procedures.

B1: NI16 clone (Arabidopsis NI16 cDNA clone from the pJG4-5 library, fused to the B42 transcriptional activation domain) (other, not shown: large carriers)
chain: MNNSLKKEERVEEDNGKSDGNRGKPSTEVVRTVTEEEVDEFFKILRRVHVATRTVAKVNGGVAEGELPSKKRKRSQNLGLRNSLDCNGVRDGEFDEINRVGLQGLGLDLNCKPEPDSVSLSL
notes: also called NI16 protein
Turning to B1, the binding result is listed as “no binding”.
